From patent publication US20100041597A1, “PEPTIDES TARGETED TO PROTEIN KINASE C ISOFORMS AND USES THEREOF” (priority 2005, published 2010) come the findings set out here.

Experiment [1] has as its target PKC-βI (endogenous, human cell extracts) (human) (UniProt P05771). Briefly: Western blot Protocol B, IMR-32 extract, no peptide.
The target of experiment [2] is PKC-βII (endogenous, human cell extracts) (human) (UniProt P05771). The experiment is described as above.
The target of experiment [3] is PKC-ε (endogenous, human cell extracts) (human) (UniProt Q02156). In words: Western blot Protocol B, IMR-32 extract, Band 2, no peptide. On the technique in general: A western blot detects proteins with antibodies after separation by electrophoresis.
The target is the same in experiment [4]. In words: Western blot Protocol B, IMR-32 extract, Band 1, no peptide.

Values joined by “and” are separate entries in the source; they are usually repeats but may differ in a detail not shown here. Equal values may be shown once.

Sequence of PKC-ε (endogenous, human cell extracts) (human) (Q02156 whole entry): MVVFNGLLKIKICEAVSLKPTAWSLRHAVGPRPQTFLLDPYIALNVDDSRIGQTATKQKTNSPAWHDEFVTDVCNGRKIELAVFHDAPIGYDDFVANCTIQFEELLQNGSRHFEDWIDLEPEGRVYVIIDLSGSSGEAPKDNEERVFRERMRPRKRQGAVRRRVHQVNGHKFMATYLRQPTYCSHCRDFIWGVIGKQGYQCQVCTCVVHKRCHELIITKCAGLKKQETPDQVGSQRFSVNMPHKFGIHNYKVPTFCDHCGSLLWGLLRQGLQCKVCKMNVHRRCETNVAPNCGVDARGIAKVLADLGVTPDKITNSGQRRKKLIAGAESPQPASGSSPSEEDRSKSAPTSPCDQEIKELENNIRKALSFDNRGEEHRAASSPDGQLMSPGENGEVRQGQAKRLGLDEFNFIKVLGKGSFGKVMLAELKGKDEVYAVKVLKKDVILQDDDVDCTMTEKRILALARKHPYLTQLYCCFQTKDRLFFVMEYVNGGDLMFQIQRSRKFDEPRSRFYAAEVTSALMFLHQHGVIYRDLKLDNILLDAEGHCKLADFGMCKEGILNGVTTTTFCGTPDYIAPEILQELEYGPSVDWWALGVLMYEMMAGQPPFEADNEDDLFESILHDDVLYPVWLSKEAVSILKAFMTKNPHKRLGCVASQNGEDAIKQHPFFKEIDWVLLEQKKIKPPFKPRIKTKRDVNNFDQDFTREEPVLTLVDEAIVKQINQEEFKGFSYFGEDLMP
Sequence of PKC-βII (endogenous, human cell extracts) (human) (P05771 other isoform, or with tags, fused parts or gaps limits assumed): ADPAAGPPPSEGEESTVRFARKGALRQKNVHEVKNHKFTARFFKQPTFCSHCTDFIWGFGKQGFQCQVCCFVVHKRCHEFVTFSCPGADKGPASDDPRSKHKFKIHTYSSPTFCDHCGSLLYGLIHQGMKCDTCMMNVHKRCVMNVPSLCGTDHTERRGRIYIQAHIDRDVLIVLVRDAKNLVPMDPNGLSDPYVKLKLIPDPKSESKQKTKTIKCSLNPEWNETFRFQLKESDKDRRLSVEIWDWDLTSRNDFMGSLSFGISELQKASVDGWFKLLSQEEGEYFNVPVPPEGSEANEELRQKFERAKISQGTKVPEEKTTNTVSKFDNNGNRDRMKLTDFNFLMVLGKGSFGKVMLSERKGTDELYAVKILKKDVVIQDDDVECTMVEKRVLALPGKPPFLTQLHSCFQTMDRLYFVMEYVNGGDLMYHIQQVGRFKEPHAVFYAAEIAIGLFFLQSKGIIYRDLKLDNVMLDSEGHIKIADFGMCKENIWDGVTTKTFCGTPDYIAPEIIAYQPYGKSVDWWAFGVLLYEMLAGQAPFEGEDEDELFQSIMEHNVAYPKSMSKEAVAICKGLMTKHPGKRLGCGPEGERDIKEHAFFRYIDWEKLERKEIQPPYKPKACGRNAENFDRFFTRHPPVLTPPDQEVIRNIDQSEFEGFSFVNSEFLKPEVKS
Sequence of PKC-βI (endogenous, human cell extracts) (human) (P05771 2-671): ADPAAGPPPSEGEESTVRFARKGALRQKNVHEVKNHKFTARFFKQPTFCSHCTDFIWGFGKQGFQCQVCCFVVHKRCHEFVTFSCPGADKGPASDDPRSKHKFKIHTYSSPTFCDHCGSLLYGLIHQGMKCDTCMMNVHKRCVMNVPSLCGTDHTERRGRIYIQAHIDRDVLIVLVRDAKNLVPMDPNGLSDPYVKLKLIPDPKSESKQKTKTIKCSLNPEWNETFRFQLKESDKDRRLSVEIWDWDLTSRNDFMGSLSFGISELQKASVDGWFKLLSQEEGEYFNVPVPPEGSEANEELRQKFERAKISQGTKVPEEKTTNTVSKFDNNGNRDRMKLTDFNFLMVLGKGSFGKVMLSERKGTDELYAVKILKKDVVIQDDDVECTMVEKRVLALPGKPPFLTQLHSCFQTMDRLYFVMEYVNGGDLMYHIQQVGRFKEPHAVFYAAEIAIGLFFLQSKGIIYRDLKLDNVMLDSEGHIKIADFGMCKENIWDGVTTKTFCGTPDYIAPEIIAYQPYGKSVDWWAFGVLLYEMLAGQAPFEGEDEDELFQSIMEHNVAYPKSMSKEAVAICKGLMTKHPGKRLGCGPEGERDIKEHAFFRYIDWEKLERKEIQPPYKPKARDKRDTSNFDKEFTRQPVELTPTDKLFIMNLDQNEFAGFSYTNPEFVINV

“anti-PKC βI antibody (Cat. No. SC-209, Santa Cruz Biotechnology, Inc.)” showed a band intensity in experiment [1] of 170.

In the case of “anti-PKC βII antibody (Cat. No. SC-210, Santa Cruz Biotechnology, Inc.)”, the band intensity in experiment [2] was determined as 98.6.

Turning to “anti-PKC ε antibody (Cat. No. SC-214, Santa Cruz Biotechnology, Inc.)”, the band intensity in experiment [3] is 261 and 281 and 286; in experiment [4], 421 and 420 and 323.
